T1: human elastin (human, UniProt P15502 27-786)
T1 construct: elastin, human; No catalogue number printed; a commercial soluble elastin may be a cross-linked or hydrolysed tissue preparation; source: bought: Sigma-Aldrich
T1 sequence (looked up): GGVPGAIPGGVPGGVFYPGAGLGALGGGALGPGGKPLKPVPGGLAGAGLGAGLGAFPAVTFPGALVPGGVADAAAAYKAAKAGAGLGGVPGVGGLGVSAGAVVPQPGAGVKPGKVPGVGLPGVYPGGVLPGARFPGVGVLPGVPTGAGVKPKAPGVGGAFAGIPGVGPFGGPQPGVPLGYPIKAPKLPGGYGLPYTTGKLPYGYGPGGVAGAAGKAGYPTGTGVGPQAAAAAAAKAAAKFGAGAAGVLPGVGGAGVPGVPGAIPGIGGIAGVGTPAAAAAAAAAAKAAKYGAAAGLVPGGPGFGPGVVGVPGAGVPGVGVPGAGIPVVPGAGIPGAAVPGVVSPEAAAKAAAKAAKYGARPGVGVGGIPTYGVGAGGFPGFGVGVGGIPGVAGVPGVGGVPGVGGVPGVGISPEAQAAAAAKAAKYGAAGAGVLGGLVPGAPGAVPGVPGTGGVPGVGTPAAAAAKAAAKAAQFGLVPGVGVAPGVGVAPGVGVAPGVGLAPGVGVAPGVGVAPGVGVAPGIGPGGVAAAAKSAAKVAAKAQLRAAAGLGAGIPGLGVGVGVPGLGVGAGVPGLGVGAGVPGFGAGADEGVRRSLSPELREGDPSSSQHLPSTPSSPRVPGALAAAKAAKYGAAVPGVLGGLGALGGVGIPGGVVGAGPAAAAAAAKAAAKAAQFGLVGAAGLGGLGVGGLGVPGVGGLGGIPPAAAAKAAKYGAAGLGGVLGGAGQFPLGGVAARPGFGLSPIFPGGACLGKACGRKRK

B1: Candida albicans triosephosphate isomerase (Tpi1) (enzyme)
chain: MARQFFVGGNFKANGTKQQITSIIDNLNKADLPKDVEVVICPPALYLGLAVEQNKQPTVAIGAQNVFDKSCGAFTGETCASQILDVGASWTLTGHSERRTIIKESDEFIAEKTKFALDTGVKVILCIGETLEERKGGVTLDVCARQLDAVSKIVSDWSNIVVAYEPVWAIGTGLAATPEDAEETHKGIRAHLAKSIGAEQAEKTRILYGGSVNGKNAKDFKDKANVDGFLVGGASLKPEFVDIIKSRL
modifications: biotin (NHS-biotin) in the microplate assays; unlabelled in SPR, cross-linking and on cells
notes: triosephosphate isomerase Tpi1 of Candida albicans, native protein isolated from the cell wall; the UniProt ID is printed for the molecular modelling; Native protein, enzymatically active, no attached sugars found; The strain used (ATCC 10231) may differ from the strain of the UniProt entry; Modelled as a dimer, oligomeric state not measured here; also called C. albicans Tpi1; source: also …
B2: Candida glabrata triosephosphate isomerase (Tpi1) (enzyme)
chain: MARTFFVGGNFKLNGTKKSIKEIVDRLNTASLPENVEVVICPPATYLDYTVSLVSKKQVTVGGQNTYTKASGAYTGENSVDQLKDVGAKWVILGHSERRTYFHEDDKIVAEKTKFALDQGLGVILCIGETLEEKKAGVTLKVVERQLDAVIAEVKDWTNVVIAYEPVWAIGTGLAATAEDAQDIHHSIRSYLAEKLGKDTAEKTRILYGGSANGANAGTFKDKADVDGFLVGGASLKPEFVDIINSRN
modifications: biotin (NHS-biotin) in the microplate assay; unlabelled in SPR and on cells
notes: triosephosphate isomerase Tpi1 of Candida glabrata, native protein isolated from the cell wall; identifier not given; Native protein, enzymatically active, no attached sugars found; also called C. glabrata Tpi1; source: also endogenous, on live C. glabrata cells

What was measured:
[1] = molecular target: Candida albicans triosephosphate isomerase (Tpi1) (Candida albicans (strain ATCC 10231)) (UniProt Q9P940); assay: SPR; Biacore 3000, Tpi1 amine-coupled to a CM5 chip (ca. 150 RU), human ECM proteins 50-750 nM injected; 10 mM HEPES, 150 mM NaCl, 0.005 % P20, pH 7.4; 1:1 Langmuir model, global or local fit
[2] = molecular target: Candida glabrata triosephosphate isomerase (Tpi1) (Candida glabrata (strain CBS138, ATCC 2001)) (UniProt Q6FRI3); assay: as above
human vitronectin [3] = molecular target: T2, human vitronectin (human, UniProt P04004 20-478, biotin (NHS-biotin) in the whole-cell assay only; sulfo-SDAD on amino groups in the cross-linking experiment); assay: as above; details: both partners purified
T2 construct: vitronectin, human; UniProt ID printed for the modelling only (there: vitronectin V65 subunit); No catalogue number printed; also called VTR; source: bought: R&D Systems

human elastin = molecular target: T1, human elastin; assay: as above; details: both partners purified
human vitronectin [4] = molecular target: T2, human vitronectin; assay: ELISA; microplate-based protein-binding assay: human ECM proteins coated (3 pmoles per well, MaxiSorp, overnight 4 °C), biotin-labelled Tpi1 10-800 nM in PBS, 1.5 h at 37 °C, SA-HRP/TMB detection; apparent KD; details: both partners purified
[5] = molecular target: human ECM proteins tested in the microplate-based protein-binding assay (Fig. 5); assay: as above
human collagen (human) = assay: as above

T2 sequence (P04004 20-478): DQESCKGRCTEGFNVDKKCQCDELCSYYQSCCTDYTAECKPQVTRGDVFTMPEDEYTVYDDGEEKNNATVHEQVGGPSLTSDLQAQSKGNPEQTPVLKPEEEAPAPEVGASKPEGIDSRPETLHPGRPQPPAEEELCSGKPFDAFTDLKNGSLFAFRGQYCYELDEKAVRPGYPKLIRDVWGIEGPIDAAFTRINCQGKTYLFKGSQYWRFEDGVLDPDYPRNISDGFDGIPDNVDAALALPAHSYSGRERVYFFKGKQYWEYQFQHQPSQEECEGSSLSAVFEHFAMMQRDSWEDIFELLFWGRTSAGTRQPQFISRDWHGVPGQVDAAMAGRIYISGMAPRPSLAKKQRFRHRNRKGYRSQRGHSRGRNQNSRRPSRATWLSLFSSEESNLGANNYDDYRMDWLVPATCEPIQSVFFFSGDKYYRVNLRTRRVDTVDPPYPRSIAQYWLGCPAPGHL

Row | Molecule | Kd [1] | koff [1] | kon [1] | Kd [2] | koff [2] | kon [2] | Kd (human vitronectin [3]) | koff (human vitronectin [3]) | kon (human vitronectin [3]) | Kd (human elastin) | koff (human elastin) | kon (human elastin) | Kd (human vitronectin [4]) | Kd [5] | Kd (human collagen (human))
1 | human collagen (natural protein) | 109 nM | 0.00199 s⁻¹ | 18200 M⁻¹ s⁻¹ | 214 nM | 0.00308 s⁻¹ | 14400 M⁻¹ s⁻¹ |  |  |  |  |  |  |  |  | 
2 | human fibronectin (from UniProt P02751 32-2477) (natural protein) | 326 nM | 0.0105 s⁻¹ | 32200 M⁻¹ s⁻¹ | 730 nM | 0.0473 s⁻¹ | 64800 M⁻¹ s⁻¹ |  |  |  |  |  |  |  |  | 
3 | human laminin (complex) | 739 nM | 0.0327 s⁻¹ | 44200 M⁻¹ s⁻¹ | 253 nM | 0.00339 s⁻¹ | 13400 M⁻¹ s⁻¹ |  |  |  |  |  |  |  |  | 
4 | B1 |  |  |  |  |  |  | 86 nM | 0.00877 s⁻¹ | 102000 M⁻¹ s⁻¹ | 821 nM | 0.0382 s⁻¹ | 46500 M⁻¹ s⁻¹ | ~10 nM |  | 
5 | B2 |  |  |  |  |  |  | 168 nM | 0.0031 s⁻¹ | 18400 M⁻¹ s⁻¹ | 20.1 nM | 0.00191 s⁻¹ | 95100 M⁻¹ s⁻¹ |  | 100 nM | 1000 nM

— article PMC8252264, “Candida albicans and Candida glabrata triosephosphate isomerase – a moonlighting protein that can be exposed on the candidal cell surface and bind to human extracellular matrix proteins” (BMC Microbiology, 2021)
